Results on 8 molecules are retold here after PMC12137140, “The fast-evolving FIKK kinase family of Plasmodium falciparum can be inhibited by a single compound” (Nature Microbiology, 2025).

Where no end group is shown, it is not given here. [ ]: non-standard residue; d: D form.

In general, koff refers to a measure of how fast the partners let go of each other. Read a low koff as slow dissociation. For orientation: kon means a measure of how fast the partners come together. A higher kon goes with fast association. Usually Kd stands for the concentration at which binding is half-saturated.

Sequences and labels used below:
B1: FIKK13_2 (peptide)
peptide: YSFPVYRIWYRDCG
modifications: D-tyrosine at position 1; cyclised via a thioether bond between the N-terminus and the cysteine side chain; C-terminal amide
B2: FIKK13_2_linear (peptide)
peptide: [dY]SFPVYRIWYRDCG-NH2
modifications: N-terminus assumed
SMILES: CC[C@H](C)[C@H](NC(=O)[C@H](CCCNC(=N)N)NC(=O)[C@H](Cc1ccc(O)cc1)NC(=O)[C@@H](NC(=O)[C@@H]1CCCN1C(=O)[C@H](Cc1ccccc1)NC(=O)[C@H](CO)NC(=O)[C@H](N)Cc1ccc(O)cc1)C(C)C)C(=O)N[C@@H](Cc1c[nH]c2ccccc12)C(=O)N[C@@H](Cc1ccc(O)cc1)C(=O)N[C@@H](CCCNC(=N)N)C(=O)N[C@@H](CC(=O)O)C(=O)N[C@@H](CS)C(=O)NCC(N)=O
B3: FIKK13_1 (peptide)
peptide: YRLVFGCG
modifications: D-tyrosine at position 1; cyclised via a thioether bond between the N-terminus and the cysteine side chain; C-terminal amide
B4: FIKK13_3 (peptide)
peptide: YPFITSPRYCFML
modifications: D-tyrosine at position 1; cyclised via a thioether bond between the N-terminus and the cysteine side chain; C-terminal amide
B5: FIKK13_4_Y10A (peptide)
peptide: YPLRFLSVKAHCG
modifications: D-tyrosine at position 1; cyclised via a thioether bond between the N-terminus and the cysteine side chain; C-terminal amide
B6: FIKK13_5 (peptide)
peptide: YRIFRIWWERCG
modifications: D-tyrosine at position 1; cyclised via a thioether bond between the N-terminus and the cysteine side chain; C-terminal amide
B7: FIKK13_4_linear (peptide)
peptide: [dY]PLRFLSVKYHCG-NH2
modifications: N-terminus assumed
SMILES: CC(C)C[C@H](NC(=O)[C@H](Cc1ccccc1)NC(=O)[C@H](CCCNC(=N)N)NC(=O)[C@H](CC(C)C)NC(=O)[C@@H]1CCCN1C(=O)[C@H](N)Cc1ccc(O)cc1)C(=O)N[C@@H](CO)C(=O)N[C@H](C(=O)N[C@@H](CCCCN)C(=O)N[C@@H](Cc1ccc(O)cc1)C(=O)N[C@@H](Cc1c[nH]cn1)C(=O)N[C@@H](CS)C(=O)NCC(N)=O)C(C)C
B8: FIKK13_6 (peptide)
peptide: YIVSVVCWSD
modifications: D-tyrosine at position 1; cyclised via a thioether bond between the N-terminus and the cysteine side chain; C-terminal amide

The target of this experiment is Bio-His-FIKK13 (Plasmodium falciparum 3D7). Description: SPR; single-cycle kinetics, Biacore S200, Biotin CAPture kit; Bio-His-FIKK13 immobilised (about 1,400 RU), peptides as analytes; 50 mM Tris pH 7.5, 250 mM NaCl, 2 mM DTT, 10 mM MgCl2, 1.5 µM ADP, 0.02% Tween, 0.1% DMSO; 25 °C; 100 s contact time. In general terms: In SPR one partner is held on a chip, and binding of the other changes the refractive index at the surface.
On to B1, for which the koff turned out to be 0.2 s⁻¹ and the kon amounted to 1.4e+06 M⁻¹ s⁻¹. B2 returned a Kd of over 10 µM.

B3 yielded a Kd of over 10 µM. The molecule B4 returned a koff of 0.029 s⁻¹ and a kon of 3.5e+06 M⁻¹ s⁻¹. B5 had a Kd of over 10 µM.

Take B6: the koff is 0.07 s⁻¹ and the kon is 1.9e+06 M⁻¹ s⁻¹. Molecule B7 registered a Kd of over 10 µM.

Turning to B8, the equilibrium dissociation constant (Kd) is over 10 µM.
